Substitutions are numbered along the chain they refer to. Numbers in names are those of the source.
How the values were obtained:
[1] = molecular target: T1, extracellular region of human TIGIT fused to the Fc region of human immunoglobulin gamma-1 chain (hTIGIT-Fc) (human); assay: ELISA, plate coated with 5 µg/ml hTIGIT-Fc
T1 construct: also called human TIGIT-Fc fusion protein; wild-type TIGIT-Fc
Procedure: Binding of HuTIG1-IgG1.AA to human TIGIT was examined by ELISA. An ELISA plate was coated with 5 μg/ml hTIGIT-Fc in PBS (100 μl/well) at 4° C. overnight, washed with Wash Buffer (PBS containing 0.05% Tween 20), and blocked with 200 μl/well of SuperBlock Blocking Buffer (Thermo Fisher Scientific). After washing wells with Wash Buffer, HuTIG1-IgG1.AA, starting at 2.5 μg/ml and serial 2-fold dilutions in SuperBlock Blocking Buffer, was added for binding to plate-bound human TIGIT. After incubating the ELISA plate for 1 hr at room temperature and washing with Wash Buffer, bound antibodies were detected with 100 μl/well of HRP-conjugated goat anti-human kappa chain polyclonal antibody (Southern Biotech), 1/2,000-diluted in ELISA Buffer. After incubating for 30 min at room temperature and washing with Wash Buffer, color development was initiated with 100 μl/well of ABTS substrate and stopped with 100 μl/well of 2% oxalic acid. Absorbance was read at 405 nm. […] The half maximal effective concentration (EC₅₀) of HuTIG1-IgG1.AA for binding to TIGIT was 65 ng/ml.

[2] = molecular target: T2, HA-tagged human TIGIT with mutation N49A, on CHO-K1 cells (human, UniProt Q495A1 22-244); assay: flow cytometry on CHO-K1 cells transiently expressing HA-tagged TIGIT mutant
T2 sequence: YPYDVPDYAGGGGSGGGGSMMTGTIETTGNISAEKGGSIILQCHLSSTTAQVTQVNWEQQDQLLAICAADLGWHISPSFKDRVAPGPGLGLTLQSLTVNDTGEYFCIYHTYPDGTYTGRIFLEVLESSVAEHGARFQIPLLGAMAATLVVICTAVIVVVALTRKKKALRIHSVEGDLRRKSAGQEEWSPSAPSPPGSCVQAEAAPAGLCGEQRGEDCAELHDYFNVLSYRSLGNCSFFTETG
Procedure: (§1) For flow cytometry analysis of the anti-hTIGIT antibody binding epitope, HA-tagged human TIGIT proteins with or without single amino acid mutation were transiently transfected into CHO-K1 cells. After 24 hr, transfected cells were suspended in HBSS buffer (Thermo Fisher Scientific, Cat#14175095), and incubated with HuTIG1-IgG1.AA antibody at varying concentrations in 50 μL volume. After 1 hr incubation at 4° C., cells were washed and a second incubation with 50 μL Alexa488 conjugated anti-human IgG(H+L) secondary antibody (Thermo Fisher Scientific, Cat#A-11013) was performed to detect cells bound by antibody. Cells were incubated with an anti-HA antibody (Sigma, Cat# H7411) as a positive control, and non-transfected CHO-K1 cells were used as a negative control. The cells were analyzed on an Attune NxT Cytometer (Thermo Fisher Scientific) and the data were processed using FlowJo software. For each mutant, the saturating antibody binding MFI (mean fluorescence intensity) were normalized to 100% POC (percent of control), and no primary antibody binding control MFI were normalized to 0% POC. Data were then fit to a four parameter non-linear sigmoidal curve using GraphPad Prism 7 curve fitting using following formula: Y=Bottom+(Top−Bottom)/(1+10^{((Log EC}^₅₀^{-X)*HillSlope)}).
(§2) All of these residues co-locate to one discrete region on the front ([…] structure of the TIGIT IgV extracellular domain (FIG. 28).

[3] = molecular target: T3, HA-tagged human TIGIT with mutation D51A, on CHO-K1 cells (human, UniProt Q495A1 22-244); assay: as above
T3 construct: Built as for m17
T3 sequence: T2 sequence with A68N, D70A
Procedure: as §1, §2

[4] = molecular target: T4, HA-tagged human TIGIT with mutation H90A, on CHO-K1 cells (human, UniProt Q495A1 22-244); assay: as above
T4 construct: Built as for m17
T4 sequence: T2 sequence with A68N, H109A
Procedure: as §1, §2

[5] = molecular target: T5, HA-tagged human TIGIT with mutation N37A, on CHO-K1 cells (human, UniProt Q495A1 22-244); assay: as above
T5 construct: Built as for m17
T5 sequence: T2 sequence with N56A, A68N
Procedure: as §1, §2

[6] = molecular target: T6, HA-tagged human TIGIT with mutation Q35A, on CHO-K1 cells (human, UniProt Q495A1 22-244); assay: as above
T6 construct: Built as for m17
T6 sequence: T2 sequence with Q54A, A68N
Procedure: as §1, §2

[7] = molecular target: T6, HA-tagged human TIGIT with mutation …; assay: flow cytometry on CHO-K1 cells transiently expressing HA-tagged TIGIT mutant; Q35A mutant
Procedure: as §1, with “EC}^₅₀^{-X)*HillSlope)}). […]” for “EC}^₅₀^{-X)*HillSlope)}).”

B1: HuTIG1-IgG1.AA (humanized IgG1/kappa form of TIG1, L234A/L235A) (antibody)
heavy: not shown
light: DIQMTQSPSSLSASVGDRVTITCRASKSISKYLAWYQQKPGKAPKLLIYSGSTLQSGVPSRFSGSGSGTDFTLTISSLQPEDFATYYCQQHNEYPWTFGGGTKVEIKRTVAAPSVFIFPPSDEQLKSGTASVVCLLNNFYPREAKVQWKVDNALQSGNSQESVTEQDSKDSTYSLSSTLTLSKADYEKHKVYACEVTHQGLSSPVTKSFNRGEC
notes: Mature full chains; also called humanized TIG1
With B1 the EC50 [1] was 0.065 µg/mL, the “fold decrease in binding affinity against wild type human TIGIT” value (shortened to “fold decrease in binding affinity”) [2] was > 10 fold and the “fold decrease in binding affinity” value [3] was > 10 fold. The “fold decrease in binding affinity” value [4] was > 10 fold, the “fold decrease in binding affinity” value [5] was > 10 fold and the “fold decrease in binding affinity” value [6] was > 10 fold. For the same binder, the EC50 [7] was 176 nM.

From US20170281764A1 (JN BIOSCIENCES, published 2017)
